{"source": "patent US20030022315A1", "key": {"[1]": {"molecular_target": "full-length class D TetR (Escherichia coli) (UniProt P0ACT4)"}, "[2]": {"molecular_target": "full-length class B TetR (wild-type, Tn10-encoded) (Tn10-encoded (organism not stated))"}, "[3]": {"molecular_target": "T1, full-length class C TetR (Escherichia coli) (UniProt P03039)", "T1 sequence": "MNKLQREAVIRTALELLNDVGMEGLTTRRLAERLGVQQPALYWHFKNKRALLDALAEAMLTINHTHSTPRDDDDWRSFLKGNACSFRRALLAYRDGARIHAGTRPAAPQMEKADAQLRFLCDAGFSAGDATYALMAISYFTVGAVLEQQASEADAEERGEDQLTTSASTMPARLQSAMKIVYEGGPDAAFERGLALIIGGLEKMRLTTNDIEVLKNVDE"}, "[4]": {"molecular_target": "T2, full-length class E TetR (Escherichia coli) (UniProt P21337)", "T2 sequence": "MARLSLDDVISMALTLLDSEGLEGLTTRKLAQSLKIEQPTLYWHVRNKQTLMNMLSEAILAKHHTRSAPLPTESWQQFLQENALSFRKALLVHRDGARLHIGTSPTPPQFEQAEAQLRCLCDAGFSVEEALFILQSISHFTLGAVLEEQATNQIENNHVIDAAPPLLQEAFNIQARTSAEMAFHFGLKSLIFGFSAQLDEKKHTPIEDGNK"}}, "data": [{"binder": "deletion mutant of the Tn10-encoded class B TetR (Δ26-53) (protein) MSRLDKSKVINSALELLNEVGIEGLALAIEMLDRHHTHFCPLEGESWQDFLRNKAKSFRCALLSHRDGAKVHLGTRPTEKQYETLENQLAFLCQQGFSLENALYALSAVGHFTLGCVLEDQEHQVAKEERETPTTDSMPPLLRQAIELFDHQGAEPAFLFGLELIICGLEKQLKCESGS", "values": [{"measurement": "Factor of Transdominance (β-galactosidase activity with against without the deletion mutant)", "setting": "[1]", "value": 1.1, "unit": "fold"}, {"measurement": "Factor of Transdominance (β-galactosidase activity with against without the deletion mutant)", "setting": "[2]", "value": 22, "unit": "fold"}, {"measurement": "Factor of Transdominance (β-galactosidase activity with against without the deletion mutant)", "setting": "[3]", "value": 2, "unit": "fold"}, {"measurement": "Factor of Transdominance (β-galactosidase activity with against without the deletion mutant)", "setting": "[4]", "value": 1, "unit": "fold"}]}]}
